B1: human CNGA4 subunit (natural protein)
chain: MSQDTKVKTTESSPPAPSKARKLLPVLDPSGDYYYWWLNTMVFPVMYNLIILVCRACFPDLQHGYLVAWLVLDYTSDLLYLLDMVVRFHTGFLEQGILVVDKGRISSRYVRTWSFFLDLASLMPTDVVYVRLGPHTPTLRLNRFLRAPRLFEAFDRTETRTAYPNAFRIAKLMLYIFVVIHWNSCLYFALSRYLGFGRDAWVYPDPAQPGFERLRRQYLYSFYFSTLILTTVGDTPPPAREEEYLFMVGDFLLAVMGFATIMGSMSSVIYNMNTADAAFYPDHALVKKYMKLQHVNRKLERRVIDWYQHLQINKKMTNEVAILQHLPERLRAEVAVSVHLSTLSRVQIFQNCEASLLEELVLKLQPQTYSPGEYVCRKGDIGQEMYIIREGQLAVVADDGITQYAVLGAGLYFGEISIINIKGNMSGNRRTANIKSLGYSDLFCLSKEDLREVLSEYPQAQTIMEEKGREILLKMNKLDVNAEAAEIALQEATESRLRGLDQQLDDLQTKFARLLAELESSALKIAYRIERLEWQTREWPMPEDLAEADDEGEPEEGTSKDEEGRASQEGPPGPE
notes: CNGA4, human; Expressed from a tri-cistronic construct with P2A peptides between neighbouring genes; remnants of P2A may remain at chain ends (surmise); source: HEK293F, BacMam, tri-cistronic P2A construct, purified within the CNGA2/A4/B1b complex (anti-Flag, Strep-Tactin, SEC); not shown: Flag, N-terminal, kept
B2: human CNGA2 subunit (natural protein)
chain: MTEKTNGVKSSPANNHNHHAPPAIKANGKDDHRTSSRPHSAADDDTSSELQRLADVDAPQQGRSGFRRIVRLVGIIREWANKNFREEEPRPDSFLERFRGPELQTVTTQEGDGKGDKDGEDKGTKKKFELFVLDPAGDWYYCWLFVIAMPVLYNWCLLVARACFSDLQKGYYLVWLVLDYVSDVVYIADLFIRLRTGFLEQGLLVKDTKKLRDNYIHTLQFKLDVASIIPTDLIYFAVDIHSPEVRFNRLLHFARMFEFFDRTETRTNYPNIFRISNLVLYILVIIHWNACIYYAISKSIGFGVDTWVYPNITDPEYGYLAREYIYCLYWSTLTLTTIGETPPPVKDEEYLFVIFDFLIGVLIFATIVGNVGSMISNMNATRAEFQAKIDAVKHYMQFRKVSKGMEAKVIRWFDYLWTNKKTVDEREILKNLPAKLRAEIAINVHLSTLKKVRIFHDCEAGLLVELVLKLRPQVFSPGDYICRKGDIGKEMYIIKEGKLAVVADDGVTQYALLSAGSCFGEISILNIKGSKMGNRRTANIRSLGYSDLFCLSKDDLMEAVTEYPDAKKVLEERGREILMKEGLLDENEVATSMEVDVQEKLGQLETNMETLYTRFGRLLAEYTGAQQKLKQRITVLETKMKQNNEDDYLSDGMNSPELAAADEP
notes: CNGA2, human; Expressed from a tri-cistronic construct with P2A peptides between neighbouring genes; remnants of P2A may remain at chain ends (surmise); Two copies stand in the heterotetramer; also called A2L; A2R; source: HEK293F, BacMam, tri-cistronic P2A construct, purified within the CNGA2/A4/B1b complex (anti-Flag, Strep-Tactin, SEC); not shown: Flag, N-terminal, kept

Key:
[1] = target: B2; experiment: cryo-EM structure; CNGA2/A4/B1b after removal of CaM by EGTA and SEC, incubated with 5 mM cAMP; cAMP-bound open state; settings: both partners purified
[2] = target: T1, human calmodulin (human, UniProt P0DP23 1-149); experiment: cryo-EM structure; CNGA2/A4/B1b co-expressed with CaM, complex purified with 2 mM CaCl2 in digitonin; apo (no cAMP), closed state; focused refinement around the CLZ region; settings: both partners purified
T1 construct: calmodulin, human; The purified CaM (800 nM) and the endogenous HEK293 CaM of the patch-clamp recordings are written with this molecule; also called CaM; Ca^2+/CaM; source: HEK293F, BacMam, co-expressed with CNGA2/A4/B1b, co-purified (anti-Flag, Strep-Tactin, SEC); not shown: Strep, C-terminal, kept

[3] = target: T2, human CNGB1b subunit (shorter CNGB1 variant, amino acids 456-1251) (human, UniProt Q14028 456-1251); experiment: as above; settings: both partners purified
T2 construct: CNGB1b, olfactory shorter variant of human CNGB1 lacking the N-terminal GARP domain, amino acids 456-1251 of CNGB1; Expressed from a tri-cistronic construct with P2A peptides between neighbouring genes; remnants of P2A may remain at chain ends (surmise); source: HEK293F, BacMam, tri-cistronic P2A construct, purified within the CNGA2/A4/B1b complex (anti-Flag, Strep-Tactin, SEC); not shown: Flag, …
T2 sequence (Q14028 456-1251, stated change not applied): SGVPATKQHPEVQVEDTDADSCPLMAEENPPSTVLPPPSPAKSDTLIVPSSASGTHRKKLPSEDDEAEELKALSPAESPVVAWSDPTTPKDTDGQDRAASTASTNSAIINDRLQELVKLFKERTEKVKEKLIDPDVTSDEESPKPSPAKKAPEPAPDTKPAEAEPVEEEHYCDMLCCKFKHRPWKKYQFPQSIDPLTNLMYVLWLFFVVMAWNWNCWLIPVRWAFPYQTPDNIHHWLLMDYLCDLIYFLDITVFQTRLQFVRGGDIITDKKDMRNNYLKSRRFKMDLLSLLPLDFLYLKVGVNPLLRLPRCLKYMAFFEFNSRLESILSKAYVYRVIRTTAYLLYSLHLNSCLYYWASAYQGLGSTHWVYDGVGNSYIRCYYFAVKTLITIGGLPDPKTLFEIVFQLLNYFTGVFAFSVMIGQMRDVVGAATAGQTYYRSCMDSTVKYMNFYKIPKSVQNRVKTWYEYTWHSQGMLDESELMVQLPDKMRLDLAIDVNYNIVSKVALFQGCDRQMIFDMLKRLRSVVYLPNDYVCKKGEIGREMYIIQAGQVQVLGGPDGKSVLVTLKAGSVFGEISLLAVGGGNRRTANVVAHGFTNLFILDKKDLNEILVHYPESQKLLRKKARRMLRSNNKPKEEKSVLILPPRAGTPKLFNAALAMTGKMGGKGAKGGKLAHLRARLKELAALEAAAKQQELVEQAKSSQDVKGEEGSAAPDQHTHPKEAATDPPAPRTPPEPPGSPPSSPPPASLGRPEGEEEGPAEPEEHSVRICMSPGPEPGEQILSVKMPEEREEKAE

[4] = target: the molecule itself; experiment: as above

| binding result [1] | binding result [2] | binding result [3] | Binder | binding result [4] |
| --- | --- | --- | --- | --- |
| binds | binds | binds | B1 | – |
| – | – | binds | B2 | binds |

Reference: publication PMC12549891, “Structural mechanisms of assembly, gating, and calmodulin modulation of human olfactory CNG channel” (Nature Communications, 2025)
